Source: PMC4162156

Biological target: β-PrP^23–231 (full-length recombinant mouse PrP residues 23–231 refolded to the β-sheet conformation) (mouse) (UniProt P04925)
Test: AUC

“β-PrP^23–231 (full-length recombinant mouse PrP residues 23–231 refolded to the β-sheet conformation) (from UniProt P04925 23-231) (natural protein)” showed a percentage occupancy of sample (oligomer) of 61% and a stoichiometry N (monomer subunits) of 12.
